# Measured values taken from patent publication US20230265407A1, “HUMAN RECOMBINANT ACE2-FC MUTANTS THAT DECOUPLE ANTI-SARS-COV-2 ACTIVITY FROM CARD[…]” (Northwestern University, priority 2020, published 2023).
# “Also recorded” adds a separate entry of the source. Read-outs that look alike come from different tables or passages of the source.
# What was measured:
# ACE2 = ACE2 (Homo sapiens, UniProt Q9BYF1); settings: cited from earlier work
# [1] = molecular target: RBD of SARS-CoV-2 spike protein (Severe acute respiratory syndrome coronavirus 2, UniProt P0DTC2)
# [2] = mice, up to two months; cited from earlier work
# [3] = degradation of AngII by the fusion; cited from earlier work
# Mca-APK(Dnp) = settings: cited from earlier work
# [4] = test system: Spike (SARS-CoV-2) pseudotyped lentivirus; assay type: cell-based
# Ang II = experiment: Mass spectrometry analysis of peptides generated from Ang II by ACE2-Fc; settings: Ang II peptide as substrate
# angiotensin I = angiotensin I (Homo sapiens, UniProt Q9BYF1); settings: cited from earlier work
# angiotensin II = angiotensin II (Homo sapiens, UniProt Q9BYF1); settings: cited from earlier work
# apelin-13 [5] = molecular target: apelin-13 (Homo sapiens, UniProt Q9BYF1); settings: cited from earlier work
# dynorphin-13 = dynorphin-13 (Homo sapiens, UniProt Q9BYF1); settings: cited from earlier work
# [6] = test system: Mca-APK(Dnp) surrogate fluorogenic substrate; settings: 20 min reaction, compared with wild-type ACE2-Fc
# Description: ACE2 peptidase activity measured using surrogate Mca-APK(Dnp). ACE2-Fc peptidase activity assay using surrogate fluorogenic substrate Mca-APK(Dnp) (Enzo Life Sciences, Farmingdale, N.Y.) was performed in black microtiter plates. The reaction buffer contained 50 mM 4-morpholineethanesulfonic acid, pH=6.5, 300 mM NaCl, 10 μM ZnC12, 0.01% Triton X-100 and 20 μM of Mca-APK(Dnp). The total reaction volume was 100 μL at room temperature and the duration of the reactions were 20 min. Peptidase activities were calculated as fluorescence intensity at 320 nm excitation and 420 nm emission wavelength.
# In parallel, we performed ACE2 activity assays using either Mca-APK(Dnp) or synthetic Ang II peptide as substrate together with individual variants of ACE2-Fc as the enzyme. By using Mca-APK(Dnp), fluorescence signals at 328 nm excitation and 393 nm emission were recorded.
# AngII = experiment: Phenylalanine Assay: ACE2 peptidase activity with AngII as substrate; settings: phenylalanine hydrolysis, 20 min, 37° C.
# Description: (§1) ACE2 peptidase activity measured using physiological substrates of AngII and apelin-13. […] It involves two coupled reactions, hydrolysis of the C-terminus phenylalanine residues from the substrates by ACE2 catalysis and the measurement of free amino acid phenylalanine using yeast enzyme of phenylalanine ammonia lyase (PAL) in a colorimetric assay (supplementary Figure S2).
# (§2) The reactions were carried out using indicated concentrations of ACE2-Fc proteins together with either AngII or apelin-13 at indicated concentrations in reaction buffer containing 20 mM Tris-HCl, pH=7.4, 136 mM NaCl and 10 μM ZnC12. The first reaction was proceeded at 37° C. after 20 min before stopped by 80° C. heat inactivation for 5 min. The second reaction used a phenylalanine detection kit (Sigma-Aldrich, St. Louis, Mo.). 1 μL enzyme mix and 1 μL developer from the kit were added to the above reaction, which was allowed to proceed for 20 min at room temperature. Fluorescence intensity was measured at 535 nm excitation and 585 nm emission wavelength, and all reactions were performed in triplicate.
# (§3) We performed Mca-APK(Dnp) measurements, alongside phenylalanine hydrolysis assays using AngII and apelin-13 as substrates to determine the enzymatic activities of the ACE2-Fc variants (FIG. 2A-C). […] The first method used an excess amount of the enzyme (100 ng) in reactions with varying concentrations of the three substrates. This would potentially detect low partial activity of enzymes.
# apelin-13 [7] = experiment: Phenylalanine Assay: ACE2 peptidase activity with apelin-13 as substrate; settings: phenylalanine hydrolysis, 20 min, 37° C.
# Description: as §1, §2, §3
# Sequence of ACE2 (Q9BYF1 18-805): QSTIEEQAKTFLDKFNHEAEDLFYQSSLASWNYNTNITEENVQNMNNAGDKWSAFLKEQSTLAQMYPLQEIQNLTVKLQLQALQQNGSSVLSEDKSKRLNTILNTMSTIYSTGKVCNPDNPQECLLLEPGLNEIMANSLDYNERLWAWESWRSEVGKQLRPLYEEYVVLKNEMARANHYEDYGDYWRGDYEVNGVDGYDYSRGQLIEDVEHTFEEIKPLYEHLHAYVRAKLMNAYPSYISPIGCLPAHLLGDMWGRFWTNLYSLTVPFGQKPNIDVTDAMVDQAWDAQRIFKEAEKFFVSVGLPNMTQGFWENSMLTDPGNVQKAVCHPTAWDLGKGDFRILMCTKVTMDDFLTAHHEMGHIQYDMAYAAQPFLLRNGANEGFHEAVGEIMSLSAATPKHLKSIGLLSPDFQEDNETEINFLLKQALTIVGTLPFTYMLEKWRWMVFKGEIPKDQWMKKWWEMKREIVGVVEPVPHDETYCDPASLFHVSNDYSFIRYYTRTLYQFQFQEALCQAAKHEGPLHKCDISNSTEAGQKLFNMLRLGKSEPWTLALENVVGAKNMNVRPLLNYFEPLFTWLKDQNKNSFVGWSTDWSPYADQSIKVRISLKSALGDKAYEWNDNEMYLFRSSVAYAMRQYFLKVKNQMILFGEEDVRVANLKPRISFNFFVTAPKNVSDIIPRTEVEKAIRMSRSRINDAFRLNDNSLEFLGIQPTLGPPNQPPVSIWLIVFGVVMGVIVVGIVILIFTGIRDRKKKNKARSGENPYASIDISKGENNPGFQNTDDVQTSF
# Sequence of apelin-13 (Homo sapiens, UniProt Q9BYF1) (Q9BYF1 18-805): as above
# Sequence of angiotensin I (Q9BYF1 18-805): as above
# Sequence of dynorphin-13 (Q9BYF1 18-805): as above
# Sequence of angiotensin II (Q9BYF1 18-805): as above
compound,measurement,setting,value
NCCCC[C@H](N[C@@H](CCc1ccccc1)C(=O)O)C(=O)N1CCC[C@H]1C(=O)O [linosipril],inhibition of ACE2,ACE2,not
C[C@H](CS)C(=O)N1CCC[C@H]1C(=O)O [captopril],inhibition of ACE2,ACE2,not
CC(C)C[C@H](N[C@@H](Cc1cncn1Cc1cc(Cl)cc(Cl)c1)C(=O)O)C(=O)O [MLN-4760],inhibition of ACE2,ACE2,inhibited
wild-type ACE2-Fc: ectodomain of human ACE2 fused to the N-terminus of Fc domain of human IgG1; forms a dimer,binding to SARS-CoV-2 spike RBD,[1],highest binding affinity
same,tolerability of repeated doses,[2],well tolerated
same,blood pressure control,[3],blood pressure control for up to two weeks
O=C(O)CN(CCN(CC(=O)O)CC(=O)O)CC(=O)O [EDTA],inhibition of ACE2,ACE2,inhibited
H374N/H378N: Glasgow et al. ACE2 trap with double mutations of the Zn2+-binding residues,activity against Mca-APK(Dnp) (Glasgow et al.),Mca-APK(Dnp),loss-of-activity
H345L: Glasgow et al. ACE2 trap with H345L mutation at the catalytic center,activity against Mca-APK(Dnp) (Glasgow et al.),Mca-APK(Dnp),loss-of-activity
R273A,IC50 of pseudotyped viral transduction,[4],0.19 µg/mL
same,inhibition of pseudotyped viral transduction (in words),[4],could suppress the transduction of a pseudotyped virus
same,generation of Ang 1-7 from Ang II by mass spectrometry,Ang II,loss of activity
same,generation of Ang 1-7 from Ang II by mass spectrometry,Ang II; listed as ACE2-Fc R273A,no Ang 1-7 signal was observed
angiotensin converting enzyme 2 [ACE2],Km,angiotensin I,6.9 µM
same,Km,angiotensin II,2 µM
same,Km,apelin-13 [5],6.8 µM
same,Km,dynorphin-13,5.5 µM
E402A: ACE2-Fc fusion with single alanine substitution of Zn2+-binding residue Glu402; loss-of-activity variant,IC50 of pseudotyped viral transduction,[4],0.25 µg/mL
same,inhibition of pseudotyped viral transduction (in words),[4],could suppress the transduction of a pseudotyped virus
same,peptidase activity toward surrogate substrate Mca-APK(Dnp),[6],completely lost their enzymatic activity
same,peptidase activity toward surrogate substrate Mca-APK(Dnp),[6]; listed as Glu402Ala,completely lack of peptidase activity
same,peptidase activity toward AngII (Phe release),AngII,inactivate ACE2; also recorded: completely lost their enzymatic activity
same,peptidase activity toward AngII (Phe release),AngII; listed as Glu402Ala,completely lack of peptidase activity
same,peptidase activity toward apelin-13 (Phe release),apelin-13 [7],inactivate ACE2; also recorded: completely lost their enzymatic activity
same,peptidase activity toward apelin-13 (Phe release),apelin-13 [7]; listed as Glu402Ala,completely lack of peptidase activity
H378A: ACE2-Fc fusion with single alanine substitution of Zn2+-binding residue His378; loss-of-activity variant,IC50 of pseudotyped viral transduction,[4],0.16 µg/mL
same,inhibition of pseudotyped viral transduction (in words),[4],could suppress the transduction of a pseudotyped virus
same,peptidase activity toward surrogate substrate Mca-APK(Dnp),[6],completely lost their enzymatic activity
same,peptidase activity toward surrogate substrate Mca-APK(Dnp),[6]; listed as His378Ala,completely lack of peptidase activity
same,peptidase activity toward AngII (Phe release),AngII,inactivate ACE2; also recorded: completely lost their enzymatic activity
same,peptidase activity toward AngII (Phe release),AngII; listed as His378Ala,completely lack of peptidase activity
same,peptidase activity toward apelin-13 (Phe release),apelin-13 [7],inactivate ACE2; also recorded: completely lost their enzymatic activity
same,peptidase activity toward apelin-13 (Phe release),apelin-13 [7]; listed as His378Ala,completely lack of peptidase activity
H345A: ACE2-Fc fusion with single alanine substitution of His345,generation of Ang 1-7 from Ang II by mass spectrometry,Ang II,full activity; also recorded: remained fully active
same,generation of Ang 1-7 from Ang II by mass spectrometry,Ang II; listed as ACE2-Fc H345A,full activity
